The experiment addresses endogenous SNAP25 in total cell lysate. As to the kind of experiment: sandwich ELISA with total cell lysate, fusion supernatant.

Sequence of endogenous SNAP25 in total cell lysate (P60879 whole entry, the tested form may be a part): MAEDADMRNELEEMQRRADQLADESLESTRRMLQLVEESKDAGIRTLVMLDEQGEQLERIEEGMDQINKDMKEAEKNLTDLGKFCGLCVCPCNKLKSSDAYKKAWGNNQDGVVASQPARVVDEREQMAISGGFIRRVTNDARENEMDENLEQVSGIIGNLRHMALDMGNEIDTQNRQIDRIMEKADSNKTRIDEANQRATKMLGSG

B1: B4 IgG (antibody, V domains shown)
VH: EVKLVESGGGLVKPGGSLKLSCAASGFTFSNYGMSWVRQTPEKRLEWVATISSGGSYTYYPDSVKGRFTISRDNAKNTLYLQMSSLRSEDTAMYYCARHEGGGNPYFDYWGQGTTLTVSS
VL: DVLMTQTPLSLPVSLGDQASISCRSSQSLVHSNGNTYLHWYLQKPGQSPKLLIYKVSNRFSGVPDRFSGSGSGTDFTLKISRVEAEDLGVYFCSQNTLVPWTFGGGTKLEIK
Consider B1, for which the ELISA signal (A450) stood at 0.1.

(Values after patent publication US20200173986A1.)
